From publication PMC11761706 come the findings set out here.

In the data set the target is T1, Loz1AZZ (Schizosaccharomyces pombe, UniProt Q9UTA1 426-522).
T1 sequence: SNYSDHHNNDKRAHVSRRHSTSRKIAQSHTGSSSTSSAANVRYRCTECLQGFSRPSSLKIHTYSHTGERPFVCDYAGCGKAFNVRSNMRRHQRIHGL
As to the kind of experiment: NMR.

B1: LRE DNA 14 bp (dsDNA)
DNA 1: GCGACGATCATTGG
DNA 2: CCAATGATCGTCGC
Turning to B1, the binding result is reported as “binds”.
